Measurements: US20260008817A1, “CYCLIC PEPTIDE OR SALT THEREOF, AND USES THEREOF” (FUJIFILM Corporation, priority 2023, published 2026)
Positions of bridges follow the written chain, without caps; N, C: chain ends. No end group written: not given here. COCH2 = acetyl group that carries the bridge

Target: T1, Recombinant Human FGFR1 alpha (IIIc) Fc Chimera Protein (Homo sapiens, UniProt P11362)
T1 construct: purchased R&D systems 658-FR-050
Assay: ELISA binding affinity of enzymatically synthesized peptide to FGFR
Settings: ELISA luminescence signal at 10 nmol/L peptide, SEQ ID NO: 239 standardized to 1; enzyme synthesis product
Description: The binding affinity of the peptide to FGFR was evaluated using an ELISA method.
The peptide used for the evaluation was enzymatically synthesized by the following method.
First, a fusion peptide (SEQ ID NO: 25) in which a translation enhancing sequence (SEQ ID NO: 22), a peptide, a Myc tag (SEQ ID NO: 23), and a HiBiT tag (SEQ ID NO: 24) were linked in this order was designed. Next, a template DNA sequence (SEQ ID NO: 26) was designed in which a T7 promoter sequence, a Shine-Dalgarno sequence, a sequence necessary for transcription and translation initiation, such as a start codon (ATG), was provided on the 5′ terminal side of the DNA sequence encoding the fused peptide, and a stop codon group was provided on the 3′ terminal side thereof. In a case where the triplet TAG codon is included in the template DNA sequence, the above-described codon is assigned to the codon of chloroacetylated lysine, and thus, the peptide encoded by the above-described DNA sequence is a cyclic peptide in which a thiol group of cysteine and a chloroacetyl group of chloroacetylated lysine spontaneously form a thioether bond.
The cell-free enzymatic synthesis of the polypeptide was performed in a translation solution containing a template DNA, PUREfrex 2.0 (GeneFrontier, PF201-0.25-5), and Aminoacyl tRNA (1). 1.75 μL ([…]) of the template DNA prepared to 50 ng/μL, 2.5 μL of PUREfrex 2.0 Solution I, 0.25 μL of Solution II, 0.5 μL of Solution III, and a dried product of Aminoacyl tRNA (1) (final concentration: 0.5 ng/μL) were mixed and mixture was subjected to a reaction at 37° C. for 1 hour.
The concentration of the enzymatically synthesized peptide was measured using the peptide diluted with Can Get Signal Immunoreaction Enhancer Solution I (TOYOBO, NKB-101), Nano-Glo HiBiT Lytic Detection System (Promega, N3040), and a chemical synthetic peptide for a calibration curve having a known concentration (SEQ ID NO: 33) according to the standard protocol of the Nano-Glo HiBiT Lytic Detection System.
The binding affinity of the enzymatically synthesized peptide to FGFR was measured by evaluating the amount of the peptide bound to FGFR by ELISA.
First, 5 ng of Recombinant Human FGFR1 alpha (IIIc) Fc Chimera Protein (R&D systems, 658-FR-050) was immobilized in each well of a 96-well plate, and blocked with Pierce Protein-Free (PBS) Blocking Buffer (Thermo, 37572), and a peptide diluted with Can Get Signal Immunoreaction Enhancer Solution I (TOYOBO, NKB-101) was then added and reacted at room temperature for 3 hours. After washing with 0.05% Tween 20-containing phosphate buffered saline (PBS), an anti-Myc antibody (Cell Signaling, 14038S) diluted with Can Get Signal Immunoreaction Enhancer Solution II (TOYOBO, NKB-101) was added and reacted at room temperature for 2 hours. After washing with 0.05% Tween 20-containing PBS, SuperSignal ELISA Femto Substrate (Thermo, 37075) was added, and the luminescence amount was measured. The dose-response relationship was calculated from using the difference between the luminescence amount in the well in which FGFR was immobilized and the luminescence amount in the well in which FGFR was not immobilized, and the concentration of the peptide at the time of reaction, and the binding affinity to FGFR was evaluated according to the following evaluation criteria. The evaluation result preferably satisfies the evaluation criteria A, B, or C.
In a case where a value of a luminescence signal emitted by the cyclic peptide set forth in SEQ ID NO: 239 at a reaction concentration of 10 nmol/L is standardized to 1, evaluation criteria of the luminescence signal value emitted by the peptide at a reaction concentration of 10 nmol/L is as follows. • A: 0.7 or more • B: 0.5 or more and less than 0.7 • C: 0.1 or more and less than 0.5 • D: less than 0.1.

T1 sequence (P11362 with tags, fused parts or gaps limits assumed): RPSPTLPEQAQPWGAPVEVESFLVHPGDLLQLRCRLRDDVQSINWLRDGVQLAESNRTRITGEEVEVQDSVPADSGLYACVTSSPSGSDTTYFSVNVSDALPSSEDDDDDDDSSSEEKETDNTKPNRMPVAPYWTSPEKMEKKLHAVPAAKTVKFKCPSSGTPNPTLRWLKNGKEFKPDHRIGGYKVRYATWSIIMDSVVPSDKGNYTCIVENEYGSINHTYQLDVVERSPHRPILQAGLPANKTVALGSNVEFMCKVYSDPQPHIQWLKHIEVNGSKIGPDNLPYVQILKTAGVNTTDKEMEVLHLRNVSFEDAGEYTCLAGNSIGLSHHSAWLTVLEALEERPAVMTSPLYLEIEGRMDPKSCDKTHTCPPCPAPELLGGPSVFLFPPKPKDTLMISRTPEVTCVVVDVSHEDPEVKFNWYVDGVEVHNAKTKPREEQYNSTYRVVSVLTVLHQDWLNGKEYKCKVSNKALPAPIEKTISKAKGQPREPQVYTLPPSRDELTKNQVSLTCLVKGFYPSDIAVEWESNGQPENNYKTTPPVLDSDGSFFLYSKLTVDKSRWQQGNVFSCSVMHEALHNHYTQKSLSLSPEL

Which “Evaluation result of binding affinity to FGFR” value (“Evaluation result” below) does the source give for “64 (ICVYAFDAHAHSLHAALTK(COCH2)I; thioether 2-19 (inferred)) [compound 64]” here?
Its value is “B (0.5 or more and less than 0.7)”.

Which “Evaluation result” value does the source give for “212 (ICVYTFDAHAHSLHAAFTK(COCH2)I; thioether 2-19 (inferred)) [compound 212]” here?
Its value is “C (0.1 or more and less than 0.5)”.

“106 (ICVYTFDAIAHSLHAALTKI; Description of Artificial Sequence: Cyclic peptide) [compound 106]” was tested. Which “Evaluation result” value did it give?
The value was “C (0.1 or more and less than 0.5)”.

Which “Evaluation result” value does the source give for “139 (ICVYTFDAHAWSLHAALTKI; Description of Artificial Sequence: Cyclic peptide) [compound 139]” here?
The value was “C (0.1 or more and less than 0.5)”.

For “213 (ICVYTFDAHAHSLHAATTK(COCH2)I; thioether 2-19 (inferred)) [compound 213]”, which “Evaluation result” value is on record?
Its value is “C (0.1 or more and less than 0.5)”.

For “253 (TCFSPGQIWIWTHLVTAIRNK(COCH2)T; thioether 2-21 (inferred)) [compound 253]”, which “Evaluation result” value is on record?
The value was “B (0.5 or more and less than 0.7)”.

How did the “Evaluation result” value turn out when “73 (ICVYHFDAHAHSLHAALTK(COCH2)I; thioether 2-19 (inferred)) [compound 73]” was run?
The value was “C (0.1 or more and less than 0.5)”.

Which “Evaluation result” value does the source give for “133 (ICVYTFDAHAPSLHAALTKI; Description of Artificial Sequence: Cyclic peptide) [compound 133]” here?
Its value is “A (0.7 or more)”.

Which “Evaluation result” value does the source give for “84 (ICVYTFFAHAHSLHAALTK(COCH2)I; thioether 2-19 (inferred)) [compound 84]” here?
The value was “C (0.1 or more and less than 0.5)”.

With “278 (ICPLYGDQGQAWQYGWK(COCH2)L; thioether 2-17 (inferred)) [compound 278]” as the substance, how does the “Evaluation result” value read?
The value was “A (0.7 or more)”.

With “87 (ICVYTFNAHAHSLHAALTK(COCH2)I; thioether 2-19 (inferred)) [compound 87]” as the substance, how does the “Evaluation result” value read?
Its value is “A (0.7 or more)”.

With “51 (DCVYTFDAHAHSLHAALTK(COCH2)I; thioether 2-19 (inferred)) [compound 51]” as the substance, how does the “Evaluation result” value read?
Its value is “A (0.7 or more)”.

For “169 (ICVYTFDAHAHSWHAALTK(COCH2)I; thioether 2-19 (inferred)) [compound 169]”, which “Evaluation result” value is on record?
The value was “C (0.1 or more and less than 0.5)”.

With “34 (CRALLRGAPFHLAEC; disulfide 1-15 (inferred)) [compound 34]” as the substance, how does the “Evaluation result” value read?
Its value is “D (less than 0.1)”.

How did the “Evaluation result” value turn out when “120 (ICVYTFDAHVHSLHAALTKI; Description of Artificial Sequence: Cyclic peptide) [compound 120]” was run?
The value was “C (0.1 or more and less than 0.5)”.

Which “Evaluation result” value does the source give for “299 (ICVYTFDAHAHSLHDALTK(COCH2)Q; thioether 2-19 (inferred)) [compound 299]” here?
The value was “A (0.7 or more)”.

For “207 (ICVYTFDAHAHSLHAILTK(COCH2)I; thioether 2-19 (inferred)) [compound 207]”, which “Evaluation result” value is on record?
The value was “C (0.1 or more and less than 0.5)”.

“186 (ICVYTFDAHAHSLQAALTK(COCH2)I; thioether 2-19 (inferred)) [compound 186]” was tested. Which “Evaluation result” value did it give?
Its value is “A (0.7 or more)”.

For “112 (ICVYTFDAQAHSLHAALTKI; Description of Artificial Sequence: Cyclic peptide) [compound 112]”, which “Evaluation result” value is on record?
The value was “A (0.7 or more)”.

For “54 (HCVYTFDAHAHSLHAALTK(COCH2)I; thioether 2-19 (inferred)) [compound 54]”, which “Evaluation result” value is on record?
The value was “A (0.7 or more)”.

Which “Evaluation result” value does the source give for “63 (ICVHTFDAHAHSLHAALTK(COCH2)I; thioether 2-19 (inferred)) [compound 63]” here?
The value was “A (0.7 or more)”.

Which “Evaluation result” value does the source give for “130 (ICVYTFDAHHHSLHAALTKI; Description of Artificial Sequence: Cyclic peptide) [compound 130]” here?
The value was “C (0.1 or more and less than 0.5)”.
